Like-named read-outs stand apart in the source and are kept apart here.
Tests used:
[1] = target: T1, myc-GIPR-Rluc (UniProt P48546)
T1 sequence: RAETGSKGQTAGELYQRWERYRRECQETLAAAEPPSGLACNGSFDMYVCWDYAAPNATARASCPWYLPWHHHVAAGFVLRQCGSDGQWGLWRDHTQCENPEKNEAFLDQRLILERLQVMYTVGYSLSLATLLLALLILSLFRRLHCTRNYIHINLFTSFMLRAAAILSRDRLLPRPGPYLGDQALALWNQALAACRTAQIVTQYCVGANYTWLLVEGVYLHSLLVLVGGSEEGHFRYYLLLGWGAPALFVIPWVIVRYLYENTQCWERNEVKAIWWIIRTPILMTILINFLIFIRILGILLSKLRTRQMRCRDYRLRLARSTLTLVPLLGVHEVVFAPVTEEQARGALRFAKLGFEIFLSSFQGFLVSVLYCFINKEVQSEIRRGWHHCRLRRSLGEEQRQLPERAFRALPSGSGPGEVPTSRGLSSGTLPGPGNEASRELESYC

[2] = target: T1, myc-GIPR-Rluc; remark: listed apart in the source

GIP (1-42) (from UniProt P09681 52-93) (peptide)
ERK1/2 phosphorylation, biphasic model, high potency component; pEC50 1 [1]: 9.13 -logEC50
ERK1/2 phosphorylation, biphasic model, low potency component; pEC50 2 [1]: 6.22 -logEC50
[Ca^2+]i mobilisation, HEK-293S cells with untagged GIPR; pEC50 [1]: 8.7 -logEC50
cAMP accumulation, 8 min stimulation, HEK-293S cells with untagged GIPR; pEC50 [1]: 9.83 -logEC50

GIP (D-Ala2) (from UniProt P09681 52-93) (peptide)
ERK1/2 phosphorylation, biphasic model, high potency component; pEC50 1 [2]: 8.72 -logEC50
ERK1/2 phosphorylation, biphasic model, low potency component; pEC50 2 [2]: 6.88 -logEC50

GIP (Pro3) (peptide)
ERK1/2 phosphorylation, biphasic model, high potency component; pEC50 1 [2]: 7.49 -logEC50
ERK1/2 phosphorylation, biphasic model, low potency component; pEC50 2 [2]: 4.5 -logEC50

Source: doi:10.1101/2021.04.08.436756
